Reference: patent publication US20110183358A1 (published 2011)
One block for each molecule: values may come before it. Square brackets hold non-standard residues; d marks the D form. Ends that are not written are not given here. * marks the point of attachment. Phe(4-Cl) = N[C@@H](Cc1ccc(Cl)cc1)C(=O)O; 2Nal = N[C@@H](Cc1ccc2ccccc2c1)C(=O)O; d2Nal = N[C@H](Cc1ccc2ccccc2c1)C(=O)O; Fmoc = O=C(OCC1c2ccccc2-c2ccccc21)*; 2Thi = N[C@@H](Cc1cccs1)C(=O)O; Cha = N[C@@H](CC1CCCCC1)C(=O)O; d2Thi = N[C@H](Cc1cccs1)C(=O)O; dCha = N[C@H](CC1CCCCC1)C(=O)O

What was measured:
[1] = target: glutathione-S-transferase-BIR2 fusion protein (GST-BIR2) (human) (UniProt P98170); test: fluorescence polarization; 400 nM rhodamine-SMAC, GST-BIR2 0.05 to 20 µM
Sequence of glutathione-S-transferase-BIR2 fusion protein (GST-BIR2) (human) (P98170 124-240): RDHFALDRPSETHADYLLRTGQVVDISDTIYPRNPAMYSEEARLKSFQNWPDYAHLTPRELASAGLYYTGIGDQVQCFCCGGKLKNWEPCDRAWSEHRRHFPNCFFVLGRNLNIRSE

[2] = target: GST-BIR3RING (human) (UniProt P98170); test: fluorescence polarization; 400 nM rhodamine-SMAC, GST-BIR3RING 0.02 to 6 µM
Sequence of GST-BIR3RING (human) (P98170 243-497): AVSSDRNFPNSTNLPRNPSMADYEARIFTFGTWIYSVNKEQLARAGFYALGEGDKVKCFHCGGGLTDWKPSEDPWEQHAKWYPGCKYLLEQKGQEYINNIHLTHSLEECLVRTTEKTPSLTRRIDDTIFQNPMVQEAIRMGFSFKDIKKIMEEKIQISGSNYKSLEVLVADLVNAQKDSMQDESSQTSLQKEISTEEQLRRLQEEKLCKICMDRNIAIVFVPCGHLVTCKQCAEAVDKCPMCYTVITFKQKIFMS

[3] = target: T1, GST-XIAP (human, UniProt P98170 1-497); test: cell-based or functional assay
T1 sequence (P98170 whole entry): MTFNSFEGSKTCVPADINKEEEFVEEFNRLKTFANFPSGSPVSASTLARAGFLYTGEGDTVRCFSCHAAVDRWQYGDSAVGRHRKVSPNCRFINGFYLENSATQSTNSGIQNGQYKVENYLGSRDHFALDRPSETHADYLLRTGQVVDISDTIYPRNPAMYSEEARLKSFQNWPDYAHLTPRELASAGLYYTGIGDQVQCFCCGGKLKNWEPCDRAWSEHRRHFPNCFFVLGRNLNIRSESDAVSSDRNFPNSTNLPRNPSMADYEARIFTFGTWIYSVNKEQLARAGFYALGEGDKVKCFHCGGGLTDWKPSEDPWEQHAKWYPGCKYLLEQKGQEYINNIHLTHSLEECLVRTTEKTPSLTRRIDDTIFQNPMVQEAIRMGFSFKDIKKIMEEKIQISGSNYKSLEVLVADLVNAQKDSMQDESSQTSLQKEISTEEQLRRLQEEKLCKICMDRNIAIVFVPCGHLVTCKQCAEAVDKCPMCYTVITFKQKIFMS

[4] = target: T1, GST-XIAP; test: cell-based or functional assay; remark: listed apart in the source
[5] = target: full length XIAP (human, UniProt P98170 1-497); test: cell-based or functional assay
Sequence of full length XIAP (P98170 whole entry): as above

Kd [1]: 20 µM
Kd [2]: 0.28 µM
Molecule: rhodamine labeled SMAC (rhodamine-SMAC) (peptide)

ratio of Vmax for hydrolysis of Ac-DEVD-AFC in the presence and absence of the species [3]: 2.4 ratio
Molecule: [2Nal][d2Thi][dF][dW] [1352-72]

Vmax(mix + casp3 + XIAP)/Vmax(casp3 + XIAP) [4]: 3.8 ratio
Molecule: H-AVPIAQK-NH2 [SMAC peptide (H-Ala-Val-Pro-Ile-Ala-Gln-Lys-NH2)]

EC50 (amount of compound necessary to restore caspase-3 activity to 50% of Vmax) [5]: 24 µM
Relative Potency (against SMAC AVPI tetrapeptide) [5]: 5.2 fold
Molecule: [2Thi][2Nal][Phe(4-Cl)]K(Fmoc) [TPI 792-33]

EC50 (amount of compound necessary to restore caspase-3 activity to 50% of Vmax) [5]: 51 µM
Relative Potency (against SMAC AVPI tetrapeptide) [5]: 2.5 fold
Molecule: [2Thi][2Nal][dK](Fmoc)K(Fmoc) [TPI 792-35]

ratio of Vmax for hydrolysis of Ac-DEVD-AFC in the presence and absence of the species [3]: 2.4 ratio
Molecule: A[dW]W[2Thi] [1332/1352-47]

ratio of Vmax for hydrolysis of Ac-DEVD-AFC in the presence and absence of the species [3]: 2.4 ratio
Molecule: [2Nal][dCha]W[dW] [1352-66]

ratio of Vmax for hydrolysis of Ac-DEVD-AFC in the presence and absence of the species [3]: 2.4 ratio
Molecule: A[dW]W[2Thi] [1352-6]

ratio of Vmax for hydrolysis of Ac-DEVD-AFC in the presence and absence of the species [3]: 2.4 ratio
Molecule: AWW[2Thi] (not fully specified) [1332/1352-1]

ratio of Vmax for hydrolysis of Ac-DEVD-AFC in the presence and absence of the species [3]: 2.4 ratio
Molecule: [Cha][d2Nal]W[2Thi] [1332-41]
